Results from doi:10.1101/2023.04.12.536585 (2023).

Assays:
[1] = target: p110γ-p101 complex (human p110γ, porcine p101) (human | porcine (Sus scrofa), UniProt P48736 1-1102; O02696 1-877); test: BLI
[2] = target: p110γ-p84 complex (human p110γ, mouse p84) (human | mouse, UniProt P48736 1-1102; Q3U6Q4 1-756); test: BLI
p110γ-p84 complex (human p110γ, mouse p84), sequence (P48736 whole entry, chain 1 of 2): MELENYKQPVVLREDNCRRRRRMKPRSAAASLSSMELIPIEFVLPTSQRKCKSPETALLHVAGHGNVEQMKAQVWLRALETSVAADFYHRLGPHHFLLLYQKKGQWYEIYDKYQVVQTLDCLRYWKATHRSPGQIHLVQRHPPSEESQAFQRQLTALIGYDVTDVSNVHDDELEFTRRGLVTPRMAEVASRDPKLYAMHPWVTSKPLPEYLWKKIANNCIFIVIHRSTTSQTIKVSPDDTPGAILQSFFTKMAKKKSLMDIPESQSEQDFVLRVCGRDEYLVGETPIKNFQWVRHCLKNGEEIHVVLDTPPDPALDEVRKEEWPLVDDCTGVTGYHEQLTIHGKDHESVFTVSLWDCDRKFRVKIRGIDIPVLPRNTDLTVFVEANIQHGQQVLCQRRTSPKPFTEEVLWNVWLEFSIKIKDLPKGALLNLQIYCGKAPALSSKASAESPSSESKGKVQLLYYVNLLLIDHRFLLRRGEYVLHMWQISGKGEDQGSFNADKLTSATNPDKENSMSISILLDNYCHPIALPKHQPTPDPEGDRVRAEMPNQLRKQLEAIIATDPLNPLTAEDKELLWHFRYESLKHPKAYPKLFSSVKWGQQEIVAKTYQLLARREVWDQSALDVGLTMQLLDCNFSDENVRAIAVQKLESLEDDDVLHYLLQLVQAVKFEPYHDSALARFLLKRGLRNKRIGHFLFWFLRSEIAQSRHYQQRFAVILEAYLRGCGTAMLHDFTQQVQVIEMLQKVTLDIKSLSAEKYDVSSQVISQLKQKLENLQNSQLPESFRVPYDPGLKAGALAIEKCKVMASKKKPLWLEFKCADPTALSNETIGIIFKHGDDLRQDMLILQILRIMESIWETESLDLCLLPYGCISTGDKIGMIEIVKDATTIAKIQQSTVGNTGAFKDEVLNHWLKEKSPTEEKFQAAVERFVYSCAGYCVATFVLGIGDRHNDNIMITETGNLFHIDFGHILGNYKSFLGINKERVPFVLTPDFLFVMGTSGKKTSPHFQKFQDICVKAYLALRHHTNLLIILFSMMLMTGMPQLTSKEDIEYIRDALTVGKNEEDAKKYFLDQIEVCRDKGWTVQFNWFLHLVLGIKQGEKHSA
p110γ-p84 complex (human p110γ, mouse p84), sequence (Q3U6Q4 whole entry, chain 2 of 2): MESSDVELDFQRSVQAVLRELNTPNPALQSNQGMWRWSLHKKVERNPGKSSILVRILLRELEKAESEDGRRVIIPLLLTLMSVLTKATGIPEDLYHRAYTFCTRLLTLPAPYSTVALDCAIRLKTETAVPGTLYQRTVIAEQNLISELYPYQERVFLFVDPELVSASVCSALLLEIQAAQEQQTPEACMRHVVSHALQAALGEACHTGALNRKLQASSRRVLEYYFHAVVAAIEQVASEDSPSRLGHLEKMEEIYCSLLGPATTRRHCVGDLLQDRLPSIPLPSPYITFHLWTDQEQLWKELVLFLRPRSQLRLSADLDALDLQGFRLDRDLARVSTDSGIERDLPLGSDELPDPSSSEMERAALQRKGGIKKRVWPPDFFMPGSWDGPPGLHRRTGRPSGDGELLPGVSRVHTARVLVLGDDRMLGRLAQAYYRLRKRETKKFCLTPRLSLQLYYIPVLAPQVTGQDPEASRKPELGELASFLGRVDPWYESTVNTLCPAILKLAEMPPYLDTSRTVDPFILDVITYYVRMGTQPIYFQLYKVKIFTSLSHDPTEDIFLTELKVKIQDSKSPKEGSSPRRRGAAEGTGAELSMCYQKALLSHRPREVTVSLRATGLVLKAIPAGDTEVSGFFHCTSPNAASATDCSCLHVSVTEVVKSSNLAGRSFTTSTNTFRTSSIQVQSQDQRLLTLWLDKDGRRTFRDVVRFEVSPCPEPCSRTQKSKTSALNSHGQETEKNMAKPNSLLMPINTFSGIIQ

p110γ-p101 complex (human p110γ, porcine p101), sequence (P48736 whole entry, chain 1 of 2): as the sequence (P48736 whole entry, chain 1 of 2) above
p110γ-p101 complex (human p110γ, porcine p101), sequence (O02696 whole entry, chain 2 of 2): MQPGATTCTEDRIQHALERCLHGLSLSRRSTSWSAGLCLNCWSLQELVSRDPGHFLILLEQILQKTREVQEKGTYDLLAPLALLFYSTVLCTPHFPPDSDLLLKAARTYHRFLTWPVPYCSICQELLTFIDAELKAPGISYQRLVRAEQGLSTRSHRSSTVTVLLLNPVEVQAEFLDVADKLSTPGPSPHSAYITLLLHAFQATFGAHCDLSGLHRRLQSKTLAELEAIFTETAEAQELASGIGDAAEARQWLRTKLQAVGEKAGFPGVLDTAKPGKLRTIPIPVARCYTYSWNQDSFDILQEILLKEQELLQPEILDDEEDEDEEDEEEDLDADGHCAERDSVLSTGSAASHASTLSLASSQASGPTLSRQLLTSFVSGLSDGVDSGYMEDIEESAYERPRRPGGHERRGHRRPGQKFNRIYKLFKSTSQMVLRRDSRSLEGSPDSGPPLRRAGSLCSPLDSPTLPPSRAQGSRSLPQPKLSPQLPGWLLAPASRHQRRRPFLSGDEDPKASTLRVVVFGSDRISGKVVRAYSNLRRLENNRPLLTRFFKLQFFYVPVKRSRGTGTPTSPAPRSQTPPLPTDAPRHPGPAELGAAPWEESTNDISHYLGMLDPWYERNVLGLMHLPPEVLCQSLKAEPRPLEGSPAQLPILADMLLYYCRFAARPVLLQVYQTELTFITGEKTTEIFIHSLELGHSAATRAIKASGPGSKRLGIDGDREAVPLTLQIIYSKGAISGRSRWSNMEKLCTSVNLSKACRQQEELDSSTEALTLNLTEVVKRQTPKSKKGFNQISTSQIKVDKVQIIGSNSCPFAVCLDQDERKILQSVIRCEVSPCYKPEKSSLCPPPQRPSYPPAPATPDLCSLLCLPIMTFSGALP

- Kd [1]: 3.1 nM
- Kd [2]: 3 nM
B1: Nanobody NB7-PIK3CG (VHH)
VHH: QVQLVESGGGLVQPGGSLRLSCAASGSIFSINAMGWYRQAPGKQRELVAHITSGGSTNYADSVKGRFTISRDNAKNTVYLQMNSLKPEDTAVYYCNEAGDPFLGSTWNGPPAFGSWGQGTQVTVSS
